The values below come from patent publication US20240261333A1, “NOVEL TARGETS FOR ENHANCING ANTI-TUMOR IMMUNITY” (THE BROAD INSTITUTE, INC., priority 2021, published 2024).

One assay has as its target DNAJC3 (human) (UniProt Q13217). Briefly: co-IP, anti-FLAG, lysate of cells with C-FLAG B3GNT2; mass spectrometry.
For a further assay, the target named is HADHB (human) (UniProt P55084). The description is as above.
The target in the next assay is T1, SERBP1 (human) (UniProt Q8NC51).
T1 sequence (looked up): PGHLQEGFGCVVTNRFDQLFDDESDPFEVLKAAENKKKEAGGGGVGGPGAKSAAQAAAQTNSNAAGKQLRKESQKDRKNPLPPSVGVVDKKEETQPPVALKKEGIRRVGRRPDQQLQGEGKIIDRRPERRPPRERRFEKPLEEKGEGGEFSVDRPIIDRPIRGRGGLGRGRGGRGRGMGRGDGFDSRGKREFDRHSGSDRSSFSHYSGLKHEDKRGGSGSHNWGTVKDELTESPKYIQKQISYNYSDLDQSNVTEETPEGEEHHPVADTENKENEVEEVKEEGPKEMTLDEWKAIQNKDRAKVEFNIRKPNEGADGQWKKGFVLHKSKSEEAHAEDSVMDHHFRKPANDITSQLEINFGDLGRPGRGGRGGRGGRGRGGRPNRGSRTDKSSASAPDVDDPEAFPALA
Described as above.

In a further assay the target is RPL18 (human) (UniProt Q07020). Described as above.
Another assay addresses KRT4 (human) (UniProt P19013). The description is as above.
A further assay deals with PUM1 (human) (UniProt Q14671). The assay is described as above.
Another assay addresses RPL4 (human) (UniProt P36578). The assay is described as above.
For a further assay, the target named is RPS28 (human) (UniProt P62857). The description is as above.
The next assay concerns the target SPTAN1 (human) (UniProt Q13813). The assay is described as above.
A further assay concerns the target RPL10 (human) (UniProt P27635). Described as above.
Another assay deals with CSE1L (human) (UniProt P55060). Described as above.
A further assay addresses EMILIN1 (human) (UniProt Q9Y6C2). The experiment in a line: control IP with IgG, lysate of cells with C-FLAG B3GNT2, mass spectrometry.
Another assay deals with GSN (human) (UniProt P06396). The description is as above.
Another assay concerns the target RPS26 (human) (UniProt P62854). Described as above.
For the next assay, the target named is CHCHD3 (human) (UniProt Q9NX63). The description is as above.
In the next assay the target is YBX1 (human) (UniProt P67809). The description is as above.
For the next assay, the target named is IMMT (human) (UniProt Q16891). The assay is described as above.
In a further assay the target is LGALS7B (human) (UniProt P47929). Described as above.
In a further assay the target is RPS27A (human) (UniProt P62979). Described as above.
The next assay concerns the target CCT3 (human) (UniProt P49368). Described as above.
Another assay addresses CALML5 (human) (UniProt Q9NZT1). Described as above.
A further assay has as its target PPFIBP1 (human) (UniProt Q86W92). The assay is described as above.
A further assay addresses TPM3 (human) (UniProt P06753). The assay is described as above.
The target of another assay is GEMIN4 (human) (UniProt P57678). Described as above.
In another assay the target is LCN1 (human) (UniProt P31025). Described as above.
The target in the next assay is T2, YTHDF2 (human) (UniProt Q9Y5A9).
T2 sequence (looked up): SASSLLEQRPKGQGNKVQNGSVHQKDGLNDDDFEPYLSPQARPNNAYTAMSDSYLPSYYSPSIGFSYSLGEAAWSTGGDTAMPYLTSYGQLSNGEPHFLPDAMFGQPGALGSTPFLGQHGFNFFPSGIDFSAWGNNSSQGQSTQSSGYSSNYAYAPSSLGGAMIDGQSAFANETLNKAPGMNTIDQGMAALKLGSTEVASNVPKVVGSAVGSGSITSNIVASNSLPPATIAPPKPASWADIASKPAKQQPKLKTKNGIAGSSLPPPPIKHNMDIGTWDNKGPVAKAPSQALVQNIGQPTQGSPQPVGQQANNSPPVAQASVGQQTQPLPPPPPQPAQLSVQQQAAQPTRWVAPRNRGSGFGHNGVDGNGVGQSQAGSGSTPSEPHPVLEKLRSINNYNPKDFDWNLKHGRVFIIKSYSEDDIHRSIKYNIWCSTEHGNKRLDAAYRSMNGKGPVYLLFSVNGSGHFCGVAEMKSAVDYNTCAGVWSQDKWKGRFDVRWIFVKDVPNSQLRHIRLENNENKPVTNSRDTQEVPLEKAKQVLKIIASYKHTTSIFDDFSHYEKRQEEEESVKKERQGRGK
The assay is described as above.

The target in the next assay is SERPINB3 (human) (UniProt P29508). Described as above.

Sequence of KRT4 (human) (P19013 whole entry): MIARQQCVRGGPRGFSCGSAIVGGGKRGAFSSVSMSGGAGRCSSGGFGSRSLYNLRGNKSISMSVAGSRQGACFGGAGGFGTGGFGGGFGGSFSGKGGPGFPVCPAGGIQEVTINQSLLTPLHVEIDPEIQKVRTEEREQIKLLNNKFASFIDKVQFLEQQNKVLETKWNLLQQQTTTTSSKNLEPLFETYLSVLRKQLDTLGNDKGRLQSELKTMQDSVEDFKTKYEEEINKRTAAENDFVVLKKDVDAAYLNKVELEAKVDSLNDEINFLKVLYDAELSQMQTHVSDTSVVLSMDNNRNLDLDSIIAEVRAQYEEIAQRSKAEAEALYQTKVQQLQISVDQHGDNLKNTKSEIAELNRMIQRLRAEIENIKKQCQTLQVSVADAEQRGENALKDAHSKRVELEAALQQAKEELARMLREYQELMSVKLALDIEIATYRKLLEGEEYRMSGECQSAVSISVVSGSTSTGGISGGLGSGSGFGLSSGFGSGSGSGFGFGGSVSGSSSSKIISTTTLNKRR
Sequence of GEMIN4 (human) (P57678 whole entry): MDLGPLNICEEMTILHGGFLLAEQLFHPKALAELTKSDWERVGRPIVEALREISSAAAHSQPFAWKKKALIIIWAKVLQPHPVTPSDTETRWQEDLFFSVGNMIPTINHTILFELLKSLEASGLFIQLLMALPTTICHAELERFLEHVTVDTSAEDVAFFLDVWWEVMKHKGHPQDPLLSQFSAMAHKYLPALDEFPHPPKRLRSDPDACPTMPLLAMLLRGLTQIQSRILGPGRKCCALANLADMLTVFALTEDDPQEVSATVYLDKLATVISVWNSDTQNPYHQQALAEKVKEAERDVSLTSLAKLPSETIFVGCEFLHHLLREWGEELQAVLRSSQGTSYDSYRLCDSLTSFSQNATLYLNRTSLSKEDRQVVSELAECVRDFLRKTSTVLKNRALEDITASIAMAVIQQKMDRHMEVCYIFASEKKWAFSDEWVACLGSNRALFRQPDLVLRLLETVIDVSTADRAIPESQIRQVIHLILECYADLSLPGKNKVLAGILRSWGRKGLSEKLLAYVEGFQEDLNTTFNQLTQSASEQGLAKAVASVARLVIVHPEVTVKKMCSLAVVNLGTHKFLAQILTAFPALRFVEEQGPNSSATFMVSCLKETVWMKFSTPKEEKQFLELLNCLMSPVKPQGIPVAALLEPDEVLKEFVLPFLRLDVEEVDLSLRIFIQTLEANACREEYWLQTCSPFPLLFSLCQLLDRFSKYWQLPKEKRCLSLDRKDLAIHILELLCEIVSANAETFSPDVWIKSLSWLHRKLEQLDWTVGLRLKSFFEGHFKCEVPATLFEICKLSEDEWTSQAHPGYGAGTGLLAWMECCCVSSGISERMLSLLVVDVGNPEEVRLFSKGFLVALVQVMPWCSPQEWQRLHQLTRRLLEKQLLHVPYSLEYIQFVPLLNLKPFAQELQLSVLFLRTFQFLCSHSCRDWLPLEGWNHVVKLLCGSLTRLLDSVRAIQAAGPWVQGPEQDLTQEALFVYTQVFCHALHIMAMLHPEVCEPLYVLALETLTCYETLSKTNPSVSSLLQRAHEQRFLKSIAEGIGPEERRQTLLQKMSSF
Sequence of CCT3 (human) (P49368 whole entry): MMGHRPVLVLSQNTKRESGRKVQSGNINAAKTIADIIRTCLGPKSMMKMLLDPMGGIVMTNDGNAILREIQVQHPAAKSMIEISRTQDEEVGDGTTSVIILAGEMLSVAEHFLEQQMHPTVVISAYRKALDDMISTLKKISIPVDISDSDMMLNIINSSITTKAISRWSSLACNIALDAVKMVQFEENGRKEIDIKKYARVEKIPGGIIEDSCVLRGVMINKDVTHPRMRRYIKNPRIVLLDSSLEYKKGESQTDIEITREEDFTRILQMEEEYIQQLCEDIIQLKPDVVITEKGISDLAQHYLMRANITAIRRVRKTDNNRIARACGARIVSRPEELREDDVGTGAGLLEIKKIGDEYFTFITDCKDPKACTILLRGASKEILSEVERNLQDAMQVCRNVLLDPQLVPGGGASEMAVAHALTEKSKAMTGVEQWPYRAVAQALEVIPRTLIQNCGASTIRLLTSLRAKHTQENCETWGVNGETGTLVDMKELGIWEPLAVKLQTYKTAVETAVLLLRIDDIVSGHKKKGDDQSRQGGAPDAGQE
Sequence of IMMT (human) (Q16891 other isoform, or with tags, fused parts or gaps limits assumed): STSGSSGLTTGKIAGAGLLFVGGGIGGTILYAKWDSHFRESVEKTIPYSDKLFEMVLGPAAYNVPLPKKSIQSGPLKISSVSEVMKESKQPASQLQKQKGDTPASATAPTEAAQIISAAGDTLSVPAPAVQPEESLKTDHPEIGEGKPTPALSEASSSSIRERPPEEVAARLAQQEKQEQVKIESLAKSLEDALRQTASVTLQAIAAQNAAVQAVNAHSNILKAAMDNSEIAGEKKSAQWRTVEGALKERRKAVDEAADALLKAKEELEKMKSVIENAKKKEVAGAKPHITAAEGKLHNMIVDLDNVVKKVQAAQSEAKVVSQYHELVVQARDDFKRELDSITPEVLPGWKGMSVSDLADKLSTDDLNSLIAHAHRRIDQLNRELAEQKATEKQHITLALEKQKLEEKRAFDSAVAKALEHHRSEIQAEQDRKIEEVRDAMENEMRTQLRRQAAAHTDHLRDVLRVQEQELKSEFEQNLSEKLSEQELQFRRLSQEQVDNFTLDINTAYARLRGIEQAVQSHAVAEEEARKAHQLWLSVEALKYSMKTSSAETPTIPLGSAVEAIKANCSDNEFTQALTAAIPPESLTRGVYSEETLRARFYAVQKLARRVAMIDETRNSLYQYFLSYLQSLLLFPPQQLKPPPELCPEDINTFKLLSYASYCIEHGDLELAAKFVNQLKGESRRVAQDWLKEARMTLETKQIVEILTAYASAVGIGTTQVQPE
Sequence of LGALS7B (human) (P47929 whole entry): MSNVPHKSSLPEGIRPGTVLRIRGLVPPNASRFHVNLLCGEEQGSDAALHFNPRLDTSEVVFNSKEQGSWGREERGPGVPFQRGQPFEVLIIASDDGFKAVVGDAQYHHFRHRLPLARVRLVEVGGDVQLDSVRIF
Sequence of PPFIBP1 (human) (Q86W92 other isoform, or with tags, fused parts or gaps limits assumed): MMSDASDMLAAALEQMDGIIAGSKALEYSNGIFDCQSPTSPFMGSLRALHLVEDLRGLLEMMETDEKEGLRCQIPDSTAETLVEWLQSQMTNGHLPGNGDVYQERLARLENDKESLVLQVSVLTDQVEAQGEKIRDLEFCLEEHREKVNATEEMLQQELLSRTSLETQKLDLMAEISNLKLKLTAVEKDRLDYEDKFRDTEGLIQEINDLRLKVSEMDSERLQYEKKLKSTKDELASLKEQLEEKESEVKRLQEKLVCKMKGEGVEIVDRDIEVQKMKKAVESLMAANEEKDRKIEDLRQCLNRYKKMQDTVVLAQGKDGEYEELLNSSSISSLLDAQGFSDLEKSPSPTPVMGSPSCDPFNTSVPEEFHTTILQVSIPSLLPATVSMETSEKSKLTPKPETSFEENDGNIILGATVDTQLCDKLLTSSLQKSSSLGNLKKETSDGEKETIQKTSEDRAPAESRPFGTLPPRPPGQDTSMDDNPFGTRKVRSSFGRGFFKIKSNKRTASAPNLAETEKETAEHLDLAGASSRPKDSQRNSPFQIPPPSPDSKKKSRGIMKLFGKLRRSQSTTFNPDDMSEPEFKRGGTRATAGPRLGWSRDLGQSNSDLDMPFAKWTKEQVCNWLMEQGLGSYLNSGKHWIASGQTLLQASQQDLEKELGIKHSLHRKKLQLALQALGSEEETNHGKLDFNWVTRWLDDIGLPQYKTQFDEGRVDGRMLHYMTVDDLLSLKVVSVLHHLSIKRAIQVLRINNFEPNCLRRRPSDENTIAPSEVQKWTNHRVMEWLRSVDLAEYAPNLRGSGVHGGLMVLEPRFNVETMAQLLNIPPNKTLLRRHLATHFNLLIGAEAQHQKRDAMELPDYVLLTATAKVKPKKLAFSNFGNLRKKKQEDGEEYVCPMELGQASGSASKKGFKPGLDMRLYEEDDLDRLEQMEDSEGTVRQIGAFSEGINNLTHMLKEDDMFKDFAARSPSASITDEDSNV
Sequence of CSE1L (human) (P55060 other isoform, or with tags, fused parts or gaps limits assumed): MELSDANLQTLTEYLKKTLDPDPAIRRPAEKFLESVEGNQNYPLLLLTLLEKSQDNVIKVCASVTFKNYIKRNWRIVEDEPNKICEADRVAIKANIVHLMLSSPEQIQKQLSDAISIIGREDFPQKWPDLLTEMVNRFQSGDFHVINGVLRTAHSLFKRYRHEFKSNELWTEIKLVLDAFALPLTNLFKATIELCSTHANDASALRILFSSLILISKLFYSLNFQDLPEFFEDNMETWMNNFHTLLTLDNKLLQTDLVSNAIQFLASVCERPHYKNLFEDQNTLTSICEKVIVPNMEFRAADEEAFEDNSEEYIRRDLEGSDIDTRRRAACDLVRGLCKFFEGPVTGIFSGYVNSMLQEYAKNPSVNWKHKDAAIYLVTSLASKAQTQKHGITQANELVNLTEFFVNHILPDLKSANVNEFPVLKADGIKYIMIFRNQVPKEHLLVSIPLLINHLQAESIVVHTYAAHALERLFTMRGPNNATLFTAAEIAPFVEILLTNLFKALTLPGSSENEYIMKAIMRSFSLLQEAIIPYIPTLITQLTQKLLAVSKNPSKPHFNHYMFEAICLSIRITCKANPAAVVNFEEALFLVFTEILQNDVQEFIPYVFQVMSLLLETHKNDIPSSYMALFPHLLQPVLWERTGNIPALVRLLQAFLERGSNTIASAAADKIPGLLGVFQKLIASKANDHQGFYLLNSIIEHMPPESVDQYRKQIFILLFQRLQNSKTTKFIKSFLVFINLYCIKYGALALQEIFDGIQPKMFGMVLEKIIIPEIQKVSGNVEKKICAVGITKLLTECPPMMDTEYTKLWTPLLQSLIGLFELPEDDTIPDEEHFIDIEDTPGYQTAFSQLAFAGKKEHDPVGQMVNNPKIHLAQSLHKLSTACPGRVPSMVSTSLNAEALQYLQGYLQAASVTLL
Sequence of CALML5 (human) (Q9NZT1 2-146 limits assumed): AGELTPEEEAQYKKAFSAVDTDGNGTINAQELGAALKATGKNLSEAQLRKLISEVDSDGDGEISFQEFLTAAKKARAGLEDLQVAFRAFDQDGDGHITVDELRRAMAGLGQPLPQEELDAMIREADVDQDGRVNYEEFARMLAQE

As to “C-terminal FLAG tagged B3GNT2 (from UniProt Q9NY97 1-397) (enzyme)”, the co-IP mass spectrometry count was found to be 3 in the assay with DNAJC3 (human); 3 in the assay with HADHB (human); 10 with SERBP1 (human); 24 with RPL18 (human); 37 with KRT4 (human); 3 with PUM1 (human). Also, the co-IP mass spectrometry count with RPL4 (human) stood at 36; in the assay with RPS28 (human), 3; in the assay with SPTAN1 (human), 3; with RPL10 (human) it was 15; in the assay with CSE1L (human), 3.

On to “IgG control (Millipore Sigma 12-371) (antibody)”, for which the co-IP mass spectrometry count is 0 in the assay with EMILIN1 (human); 0 in the assay with GSN (human); 0 with RPS26 (human); 11 in the assay with CHCHD3 (human); 5 with YBX1 (human); 16 in the assay with IMMT (human). Besides, the co-IP mass spectrometry count with LGALS7B (human) amounted to 3; with RPS27A (human) it was 14; with CCT3 (human) it was 0; with CALML5 (human), 0; with PPFIBP1 (human) it was 0; with TPM3 (human), 2. The co-IP mass spectrometry count is 0 with GEMIN4 (human), 6 with LCN1 (human), 2 in the assay with YTHDF2 (human) and 2 in the assay with SERPINB3 (human).
